Results as given in patent US20210332115A1 (Sanofi, published 2021).

What was measured:
[1] = biological target: T1, Homo sapiens factor Bb protein (human, UniProt P00751 260-764); experiment: SPR multi-cycle kinetics; ratio against VH0/Vκ0 on the same chip
T1 construct: Bought from CompTech (A155); also called complement factor Bb; human factor Bb
Protocol: Antibodies were diluted in running buffer to a final concentration of 0.5 μg/ml. At the start of each cycle, antibodies were loaded onto Fc2, Fc3 and Fc4 of the Protein A chip (GE Healthcare, Little Chalfont, UK). IgGs were captured at a flow rate of 10 μl/min to give an immobilisation level (RL) of ˜63 RU, the theoretical value to obtain an Rmax of ˜50 RU. The surface was then allowed to stabilize. Kinetic data was obtained with factor Bb as analyte and using a flow rate of 30 μl/min to minimize any potential mass transfer effects. Multiple repeats of a blank and a repeat of a single concentration of the analyte were programmed into the kinetic run in order to check the stability of both the surface and analyte over the kinetic cycles. For kinetic analysis, a two-fold dilution range was selected from 12. 5 nM to 0. 391 nM factor Bb. The association phase of factor Bb was monitored for 360 seconds and the dissociation phase was monitored for 600 seconds. Regeneration of the Protein A surface was conducted using two injections of 10 mM glycine-HCL pH 1. 5. The signal from the reference channel Fc1 was subtracted from that of Fc2, Fc3 and Fc4 to correct for differences in non-specific binding to a reference surface, and a global Rmax parameter was used in the 1-to-1 binding model.
The sensorgrams and fitted data for the binding of chimeric antibodies and humanized variants to factor Bb are shown in FIGS. 4A-4C. The relative KD was calculated by dividing the KD of the humanized variants by that of the chimeric antibody on the same chip. The kinetic parameters measured for the interaction of factor Bb with chimeric antibodies and humanized variants are shown in Table 10.

[2] = biological target: T1, Homo sapiens factor Bb protein; experiment: SPR single cycle kinetics, IgG on Protein A chip, factor Bb analyte
Procedure, shortened: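 Humanized IgGs from transfected-cell supernatants (1 μg/ml) were captured on a Protein A chip (~63 RU) and factor Bb was injected as a four-point two-fold series from 0.78 to 6.25 nM without regeneration. Each injection had 200 s association, followed by one 200 s dissociation. Run at 25° C in HBS-P+ (pH 7.4), with the reference-channel signal subtracted.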

[3] = biological target: T1, Homo sapiens factor Bb protein; experiment: competition ELISA on coated factor Bb; competitor murine parental antibody
Protocol: Factor Bb was diluted in 1× PBS to 1.0 μg/ml and 100 μl/well was coated overnight at 4° C. on a 96-well ELISA plate. The following day the plates were blocked for two hours at room temperature with 1% casein/PBS before washing 2× with PBS pH 7.4. In a 96-well dilution plate a fixed concentration of murine parental antibody (0.5 μg/ml, final concentration) was added in equal volume to a four-fold titration series of test antibody (starting from 45 μg/ml to 0.01 μg/ml, final concentration) diluted in blocking buffer. After washing the plate 3× with PBS-T, 100 μl of chimeric/test antibody mix was added to the ELISA plate. After incubating at room temperature for one hour, the plate was washed 3× with PBS-T and 100 μl of anti-mouse IgG Fc-Specific HRP (Sigma, Dorset, UK) diluted 1:1000 in PBS-T was applied for one hour at room temperature to detect bound mouse antibody. For color development, the plate was washed 3× with PBS-T following which 100 μl of TMB substrate was added and incubated for approximately five minutes at room temperature. The reaction was stopped with 50 μl of 3.0 M hydrochloric acid and absorbance was read immediately using a DYNEX ® plate reader at 450 nm.
IC50 values were calculated for each variant and relative IC50 values were calculated by dividing the IC50 of the humanized variant by that of the chimeric antibody assayed on the same plate (Table 11).

[4] = biological target: T1, Homo sapiens factor Bb protein; experiment: SPR single cycle kinetics, antibody on Protein A chip, antigen analyte
Protocol: The ability of VH4/VK6 and VH6/VK7 to bind to zymogen factor B and factor Bb from both human and cynomolgus monkey was determined by surface plasmon resonance using a Biacore T200. Human factor B and factor Bb were purchased from Comptech and cynomolgus monkey factor B and factor Bb were purified in-house. Briefly, the monoclonal antibodies were captured on a Biacore Series S Protein A chip in HBSP+ (10 mM HEPES, 150 mM NaCl, 0.05% P20 pH 7.4) at a flow rate of 30 μL/min. A five-point concentration series of each analyte was tested for binding using single cycle kinetics with a contact time of 180 seconds per concentration followed by a 600 sec dissociation at 25° C. and a flow rate of […]. Both human and cynomolgus monkey factor B started at a concentration of 500 nM followed by 2-fold dilutions, while human and cynomolgus monkey factor Bb started at concentrations of 30 nM and 150 nM, respectively, followed by 2-fold dilutions. Data were analyzed using the Biacore evaluation software using a 1:1 binding model. […] Binding to human or cynomolgus monkey factor B was barely detectable and the small signal that was observed was dominated by non-specific binding.

T1 sequence (P00751 260-764 limits assumed): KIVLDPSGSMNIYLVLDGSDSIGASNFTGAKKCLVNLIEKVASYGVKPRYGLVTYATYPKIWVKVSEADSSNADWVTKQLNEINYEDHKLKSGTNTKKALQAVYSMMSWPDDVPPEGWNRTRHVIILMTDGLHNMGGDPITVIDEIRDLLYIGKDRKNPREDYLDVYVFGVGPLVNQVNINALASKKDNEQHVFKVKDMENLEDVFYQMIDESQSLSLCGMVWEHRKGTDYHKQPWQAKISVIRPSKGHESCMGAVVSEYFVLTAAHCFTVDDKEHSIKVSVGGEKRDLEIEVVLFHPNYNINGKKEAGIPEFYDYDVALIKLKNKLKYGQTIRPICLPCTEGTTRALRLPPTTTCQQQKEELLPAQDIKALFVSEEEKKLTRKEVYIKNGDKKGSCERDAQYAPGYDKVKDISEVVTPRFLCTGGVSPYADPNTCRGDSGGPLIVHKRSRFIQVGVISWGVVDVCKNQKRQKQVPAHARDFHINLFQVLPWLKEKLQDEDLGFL

Row | Relative KD [1] | Kd [2] | koff [2] | kon [2] | IC50 [3] | Kd [4] | koff [4] | kon [4] | Binder
1 | 1 | 1.77 nM | 0.000949 s⁻¹ | 535000 M⁻¹ s⁻¹ | 1.23 nM |  |  |  | VH0/Vκ0 (Chimeric) (antibody, V domains shown, also called chimeric antibody) VH: EVQLVESGGALVKPGGSLKLSCAASGFTFSNYAMSWVRQTPEKRLEWVATISNRGSYTYYPDSVKGRFTISRDNAKNTLYLQMSSLRSEDTALYYCARERPMDYWGQGTSVTVSS VL: DIVMTQSHKFMSTSVGDRVSITCKASQDVGTAVAWYQQKPGQSPKLLIYWASTRHTGVPDRFTGSGSGTDFTLTITNVQSEDLAVYFCHQHSSNPLTFGAGTKLELK
2 |  |  |  |  |  | 5.92 nM | 0.00138 s⁻¹ | 232000 M⁻¹ s⁻¹ | VH6/Vκ7-IgG4v2 (antibody, also called VH6/VK7-IgG4v2; VH6/VK7-IgG4v2_HEK) heavy: not shown light: DIQMTQSPSTLSASVGDRVTITCKASQDVGTAVAWYQQKPGKAPKLLIYWASTRHTGVPDRFSGSGSGTDFTLTISSLQAEDFAVYFCHQHSSNPLTFGQGTKLEIKRTVAAPSVFIFPPSDEQLKSGTASVVCLLNNFYPREAKVQWKVDNALQSGNSQESVTEQDSKDSTYSLSSTLTLSKADYEKHKVYACEVTHQGLSSPVTKSFNRGEC
